Measurements published in paper PMC3145769, “Cyclin A2 Mutagenesis Analysis: A New Insight into CDK Activation and Cellular Localization Requirements” (PLoS ONE, 2011).

B1: p21 (endogenous, NIH3T3) (natural protein, mouse (endogenous in NIH3T3), UniProt P39689 1-159, looked up)
chain: MSNPGDVRPVPHRSKVCRCLFGPVDSEQLRRDCDALMAGCLQEARERWNFDFVTETPLEGNFVWERVRSLGLPKVYLSPGSRSRDDLGGDKRPSTSSALLQGPAPEDHVALSLSCTLVSERPEDSPGGPGTSQGRKRRQTSLTDFYHSKRRLVFCKRKP
notes: p21, endogenous protein of mouse NIH3T3 cells, detected by Western blot; source: endogenous, NIH3T3 cell extract
B2: p27 (endogenous, NIH3T3) (natural protein, mouse (endogenous in NIH3T3), UniProt P46414 1-197, looked up)
chain: MSNVRVSNGSPSLERMDARQAEHPKPSACRNLFGPVNHEELTRDLEKHCRDMEEASQRKWNFDFQNHKPLEGRYEWQEVERGSLPEFYYRPPRPPKSACKVLAQESQDVSGSRQAVPLIGSQANSEDRHLVDQMPDSSDNPAGLAEQCPGMRKRPAAEDSSSQNKRANRTEENVSDGSPNAGTVEQTPKKPGLRRQT
notes: p27, endogenous protein of mouse NIH3T3 cells, detected by Western blot; source: endogenous, NIH3T3 cell extract
B3: p107 (endogenous, NIH3T3) (natural protein, mouse (endogenous in NIH3T3), UniProt Q64701 1-1063, looked up)
chain: MFEDEPHAEGAAAVAAAREALQALCQELNLDEGSAAEALDDFTAIRGNYSLEGEVIHWLACSLYVACRKSIIPTVGKGVMEGNCVSLTRILRSAKLSLIQFFSKMKKWMDMSNLPQEFRERIERLERNFEVSTVIFKKFEPIFLDIFQNPYEEPPKLPRSRKQRRIPCSVKDLFNFCWTLFVYTKGNFRMIGDDLVNSYHLLLCCLDLIFANAIMCPNRRDLLNPSFKGLPSDFHAPDFKAAEEPPCIIAVLCDLHDGLLVEAKGIKEHYFKPYISKLFDKKILKGECLLDLSSFTDNSKAVNKEYEEYVLTVGDFDERIFLGADAEEEIGTPRKFTADTPFGKLTSQASVECNLQQHFEKKRSFAPSTPLTGRRYLQEKEAVTTPVASATQSVSRLQSIVAGLKSAPSEQLLNIFESCMRNPMGNIIKIVKGIGETFCQHYTQSTDKQPGSHIDFAVNRLKLAEILYYKILETIMVQETRRLHGMDMSVLLEQDIFHKSLMACCLEIVLFAYSSPRTFPWIIEVLDLQPFYFYKVIEVVIRSEEGLSRDMVKHLNSIEEQILESLAWTNNSALWEALHASANRVPSCEEVIFPNNFEIGNGGNVQGHLPMMPMSPIIHPRVKEVRTDSGSLRQDMQPLSPISVHERYSSPAAGSAKRRLFGDDPPKDTLMDKIMAEGTKLKIAPSSVTAESLSISPGQALLTMATTTVTGTTGRKVTVPLHGIANDAGEITLVPISMNPTQESTAESPVSLTAQSLIGTSPKQTHLTKAQDAHLTGVSKPKRTGSLALFYRKVYHLASVRLRDLCLKLDVSNELRRKIWTCFEFTLVHCPDLMKDRHLDQLLLCAFYIMAKVTKEERTFQEIMKSYRNQPQANSHVYRSVLLKSIPGGVVVYNGDCEMTDGDIEDATKTPNCSSEPVKEERGDLIKFYNTVYVGRVKSFALKYDLSNQDHIMDAPPLSPFPHIKQQPGSPRRISQQHSLYVSPHKNGAGLTPRSALLYKFNGSPSKSLKDINNMIRQGEQKTKKRVIAISGDADSPAKRLCQENDDVLLKRLQDVVSERANH
notes: p107, endogenous protein of mouse NIH3T3 cells, detected by Western blot; source: endogenous, NIH3T3 cell extract
B4: CDK1 (endogenous, NIH3T3) (enzyme)
chain: not shown
notes: CDK1, endogenous protein of mouse NIH3T3 cells, detected by Western blot; source: endogenous, NIH3T3 cell extract

target: T1, Cyclin A2 WT, C-terminally fused to 3 Flag tags (mouse, UniProt P51943 1-422); test: co-IP; anti-Flag M2 affinity gel on extracts of NIH3T3 cells transfected with 3xFlag Cyclin A2 alleles; endogenous partners detected by Western blot; densitometry (ImageQuantTL) normalised to immunoprecipitated Cyclin A2, percent of WT; repeated 5 times; settings: partners not purified
T1 construct: Cyclin A2, mouse; cDNA obtained from NIH3T3 cells by RT-PCR; Same construct transfected into mouse NIH3T3 (assay a1) and human HEK 293 (assay a2); also called WT Cyclin A2 allele; Flag tagged WT Cyclin A2; source: NIH3T3 or HEK 293 cells, transfected, in cell extracts; not shown: 3xFlag, C-terminal, kept
T1 sequence (P51943 whole entry, the tested form may be a part): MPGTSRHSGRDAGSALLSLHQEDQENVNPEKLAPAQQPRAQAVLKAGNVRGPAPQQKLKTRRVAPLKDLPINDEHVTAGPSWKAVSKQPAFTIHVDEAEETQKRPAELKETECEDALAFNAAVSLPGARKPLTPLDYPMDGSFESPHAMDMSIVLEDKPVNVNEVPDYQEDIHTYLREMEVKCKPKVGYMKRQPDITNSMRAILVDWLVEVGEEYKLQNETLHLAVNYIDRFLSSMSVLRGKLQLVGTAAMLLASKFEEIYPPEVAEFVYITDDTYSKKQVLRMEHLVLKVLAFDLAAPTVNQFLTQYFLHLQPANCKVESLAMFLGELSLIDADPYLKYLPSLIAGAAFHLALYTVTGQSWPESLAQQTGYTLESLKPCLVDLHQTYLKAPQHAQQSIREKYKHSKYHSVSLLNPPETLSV

Row | Binder | percent co-precipitated relative to WT
1 | B1 | 100%
2 | B2 | 100%
3 | B3 | 100%
4 | B4 | 100%

target: T2, Cyclin A2 K256A, C-terminally fused to 3 Flag tags (mouse, UniProt P51943 1-422, K256A); test: as above; settings: partners not purified
T2 construct: Cyclin A2, mouse; cDNA obtained from NIH3T3 cells by RT-PCR; source: NIH3T3 cells, transfected, in cell extracts; not shown: 3xFlag, C-terminal, kept
T2 sequence (P51943 whole entry K256A, the tested form may be a part): as the sequence (P51943 whole entry, the tested form may be a part) above, with K256A counted along it

Row | Binder | percent co-precipitated relative to WT
5 | B1 | 41.9%
6 | B2 | 19.3%
7 | B3 | 17%
8 | B4 | 3.8%

target: T3, Cyclin A2 L282R, C-terminally fused to 3 Flag tags (mouse, UniProt P51943 1-422, L282R); test: as above; settings: partners not purified
T3 construct: Cyclin A2, mouse; cDNA obtained from NIH3T3 cells by RT-PCR; source: NIH3T3 cells, transfected, in cell extracts; not shown: 3xFlag, C-terminal, kept
T3 sequence (P51943 whole entry L282R, the tested form may be a part): as the sequence (P51943 whole entry, the tested form may be a part) above, with L282R counted along it

Row | Binder | percent co-precipitated relative to WT
9 | B1 | 65.7%
10 | B2 | 44.5%
11 | B3 | 58.6%
12 | B4 | 19.8%

target: T4, Cyclin A2 E285A, C-terminally fused to 3 Flag tags (mouse, UniProt P51943 1-422, E285A); test: as above; settings: partners not purified
T4 construct: Cyclin A2, mouse; cDNA obtained from NIH3T3 cells by RT-PCR; source: NIH3T3 cells, transfected, in cell extracts; not shown: 3xFlag, C-terminal, kept
T4 sequence (P51943 whole entry E285A, the tested form may be a part): as the sequence (P51943 whole entry, the tested form may be a part) above, with E285A counted along it

Row | Binder | percent co-precipitated relative to WT
13 | B1 | 78.2%
14 | B2 | 36.7%
15 | B3 | 8.6%
16 | B4 | 4.7%

target: T5, Cyclin A2 D171A, C-terminally fused to 3 Flag tags (mouse, UniProt P51943 1-422, D171A); test: as above; settings: partners not purified
T5 construct: Cyclin A2, mouse; cDNA obtained from NIH3T3 cells by RT-PCR; source: NIH3T3 or HEK 293 cells, transfected, in cell extracts; not shown: 3xFlag, C-terminal, kept
T5 sequence (P51943 whole entry D171A, the tested form may be a part): as the sequence (P51943 whole entry, the tested form may be a part) above, with D171A counted along it

Row | Binder | percent co-precipitated relative to WT
17 | B1 | 100%
18 | B2 | 100%
19 | B3 | 100%
20 | B4 | 100%

target: T6, Cyclin A2 M200A, C-terminally fused to 3 Flag tags (mouse, UniProt P51943 1-422, M200A); test: as above; settings: partners not purified
T6 construct: Cyclin A2, mouse; cDNA obtained from NIH3T3 cells by RT-PCR; source: NIH3T3 or HEK 293 cells, transfected, in cell extracts; not shown: 3xFlag, C-terminal, kept
T6 sequence (P51943 whole entry M200A, the tested form may be a part): as the sequence (P51943 whole entry, the tested form may be a part) above, with M200A counted along it

Row | Binder | percent co-precipitated relative to WT
21 | B1 | 100%
22 | B2 | 69.2%
23 | B3 | 79.2%
24 | B4 | 72.8%

target: T7, Cyclin A2 L204A, C-terminally fused to 3 Flag tags (mouse, UniProt P51943 1-422, L204A); test: as above; settings: partners not purified
T7 construct: Cyclin A2, mouse; cDNA obtained from NIH3T3 cells by RT-PCR; source: NIH3T3 or HEK 293 cells, transfected, in cell extracts; not shown: 3xFlag, C-terminal, kept
T7 sequence (P51943 whole entry L204A, the tested form may be a part): as the sequence (P51943 whole entry, the tested form may be a part) above, with L204A counted along it

Row | Binder | percent co-precipitated relative to WT
25 | B1 | 100%
26 | B2 | 15.2%
27 | B3 | 65.6%
28 | B4 | 57.2%

target: T8, Cyclin A2 W207A, C-terminally fused to 3 Flag tags (mouse, UniProt P51943 1-422, W207A); test: as above; settings: partners not purified
T8 construct: Cyclin A2, mouse; cDNA obtained from NIH3T3 cells by RT-PCR; source: NIH3T3 or HEK 293 cells, transfected, in cell extracts; not shown: 3xFlag, C-terminal, kept
T8 sequence (P51943 whole entry W207A, the tested form may be a part): as the sequence (P51943 whole entry, the tested form may be a part) above, with W207A counted along it

Row | Binder | percent co-precipitated relative to WT
29 | B1 | 79.2%
30 | B4 | 15.3%

target: T9, Cyclin A2 Triple (M200A, L204A, W207A), C-terminally fused to 3 Flag tags (mouse, UniProt P51943 1-422, M200A | L204A | W207A); test: as above; settings: partners not purified
T9 construct: Cyclin A2, mouse; cDNA obtained from NIH3T3 cells by RT-PCR; also called Triple mutant; source: NIH3T3 or HEK 293 cells, transfected, in cell extracts; not shown: 3xFlag, C-terminal, kept
T9 sequence (P51943 whole entry M200A/L204A/W207A, the tested form may be a part): as the sequence (P51943 whole entry, the tested form may be a part) above, with M200A, L204A, W207A counted along it

Row | Binder | percent co-precipitated relative to WT
31 | B4 | 0.4%

target: T10, Cyclin A2 E180A, C-terminally fused to 3 Flag tags (mouse, UniProt P51943 1-422, E180A); test: as above; settings: partners not purified
T10 construct: Cyclin A2, mouse; cDNA obtained from NIH3T3 cells by RT-PCR; source: NIH3T3 cells, transfected, in cell extracts; not shown: 3xFlag, C-terminal, kept
T10 sequence (P51943 whole entry E180A, the tested form may be a part): as the sequence (P51943 whole entry, the tested form may be a part) above, with E180A counted along it

Row | Binder | percent co-precipitated relative to WT
32 | B1 | 11.7%
33 | B3 | 19.6%

target: T11, Cyclin A2 E210Q, C-terminally fused to 3 Flag tags (mouse, UniProt P51943 1-422, E210Q); test: as above; settings: partners not purified
T11 construct: Cyclin A2, mouse; cDNA obtained from NIH3T3 cells by RT-PCR; source: NIH3T3 cells, transfected, in cell extracts; not shown: 3xFlag, C-terminal, kept
T11 sequence (P51943 whole entry E210Q, the tested form may be a part): as the sequence (P51943 whole entry, the tested form may be a part) above, with E210Q counted along it

Row | Binder | percent co-precipitated relative to WT
34 | B1 | 60.2%
35 | B2 | 95.7%
36 | B3 | 70%
37 | B4 | 45.3%

target: T12, Cyclin A2 Double (W207L, E210Q), C-terminally fused to 3 Flag tags (mouse, UniProt P51943 1-422, W207L | E210Q); test: as above; settings: partners not purified
T12 construct: Cyclin A2, mouse; cDNA obtained from NIH3T3 cells by RT-PCR; also called Double mutant; source: NIH3T3 cells, transfected, in cell extracts; not shown: 3xFlag, C-terminal, kept
T12 sequence (P51943 whole entry W207L/E210Q, the tested form may be a part): as the sequence (P51943 whole entry, the tested form may be a part) above, with W207L, E210Q counted along it

Row | Binder | percent co-precipitated relative to WT
38 | B1 | 8.2%
39 | B4 | 9.2%
